B1: 2/99 VH17/VL4 (antibody, V domains shown)
VH: QQLQESGPGLVKPSETLSLTCTVSGFSLSSYAMSWVRQPPGKGLEWIGYIWSGGSTDYNPSLKSRVTISKDTSKNQVSLKLSSVTAADTAVYYCARRYGTSYPDYGDANGFDPWGPGTLVTVSS
VL: AYQMTQSPSSLSASVGDRVTITCRASQSISSYLSWYQQKPGKAPKLLIYRASTLASGVPSRFSGSGSGTDFTLTISSLQPEDFATYYCQQSYSSSNVDNTFGGGTKVEIK
B2: 2/99 VH9/VL6 (antibody, V domains shown)
VH: QQLLESGGGLVQPGGSLRLSCAASGFTFSSYAMSWVRQAPGKGLEWVGYIWSGGSTDYADSVKGRFTISRDNSKNTLYLQMNSLRAEDTAVYYCAKRYGTSYPDYGDANGFDPWGQGTLVTVSS
VL: B1 VL with Y2I, M4L
B3: 2/99 VH6/VL5 (antibody, V domains shown)
VH: B2 VH with L4V, S6T, V11I, T27S, F28L, V47I, K96R
VL: B1 VL with A1D, Y2I
B4: 2/99 VH5/VL6 (antibody, V domains shown)
VH: B2 VH with Q2S, L3M, L4E, S6T, V11I, T27S, F28L, K96R, Q116P
VL: B1 VL with Y2I, M4L
B5: 2/99 VH12/VL5 (antibody, V domains shown)
VH: QVQLQESGPGLVKPSETLSLTCTVSGFSLSSYAMSWIRQPPGKGLEWIGYIWSGGSTDYNPSLKSRVTISVDTSKNQFSLKLSSVTAADTAVYYCARRYGTSYPDYGDANGFDPWGQGTLVTVSS
VL: B1 VL with A1D, Y2I
B6: 2/99 VH8/VL5 (antibody, V domains shown)
VH: QQLVETGGGLIQPGGSLRLSCAASGFSLSSYAMSWVRQAPGKGLEWIGYIWSGGSTDYASWAKGRFTISKTSTTLYLQMNSLRAEDTAVYYCARRYGTSYPDYGDANGFDPWGQGTLVTVSS
VL: B1 VL with A1D, Y2I
B7: 2/99 VH16/VL5 (antibody, V domains shown)
VH: B1 VH with K70V
VL: B1 VL with A1D, Y2I
B8: 2/99 VH22/VL4 (antibody, V domains shown)
VH: B1 VH with Q2S, L3M, E15Q, P39H, N59A, P60S, S61W, L62A, K70V, P116Q
VL: B1 VL
B9: 2/99 VH9/VL5 (antibody, V domains shown)
VH: B2 VH
VL: B1 VL with A1D, Y2I
B10: 2/99 VH8/VL6 (antibody, V domains shown)
VH: B6 VH
VL: B1 VL with Y2I, M4L
B11: 2/99 VH1/VL5 (antibody, V domains shown)
VH: B2 VH with Q1V, L4V, S6T, V11I, T27S, F28L, K96R
VL: B1 VL with A1D, Y2I
B12: 2/99 VH7/VL5 (antibody, V domains shown)
VH: B2 VH with L4V, S6T, V11I, T27S, F28L, V47I, D60S, S61W, V62A, K96R
VL: B1 VL with A1D, Y2I
B13: 2/99 VH13/VL5 (antibody, V domains shown)
VH: B5 VH with F78V
VL: B1 VL with A1D, Y2I
B14: 2/99 VH11/VL5 (antibody, V domains shown)
VH: B2 VH with T27S, F28L, K96R
VL: B1 VL with A1D, Y2I
B15: 2/99 VH18/VL4 (antibody, V domains shown)
VH: B5 VH with E16Q, P40H, N60A
VL: B1 VL
B16: 2/99 VH15/VL5 (antibody, V domains shown)
VH: B1 VH with K70V, P116Q
VL: B1 VL with A1D, Y2I
B17: 2/99 VH6/VL6 (antibody, V domains shown)
VH: B2 VH with L4V, S6T, V11I, T27S, F28L, V47I, K96R
VL: B1 VL with Y2I, M4L
B18: 2/99 VH2/VL6 (antibody, V domains shown)
VH: EVQLVETGGGLIQPGGSLRLSCAASGFSLSSYAMSWVRQAPGKGLEWVGYIWSGGSTDYADSVKGRFTISRDNSKNTLYLQMNSLRAEDTAVYYCARRYGTSYPDYGDANGFDPWGQGTLVTVSS
VL: B1 VL with Y2I, M4L
B19: 2/99 VH11/VL6 (antibody, V domains shown)
VH: B2 VH with T27S, F28L, K96R
VL: B1 VL with Y2I, M4L
B20: 2/99 VH19/VL4 (antibody, V domains shown)
VH: B1 VH with Q2S, L3M, E15Q, V36I, P39H, N59A, K70V, V77F, P116Q
VL: B1 VL
B21: 2/99 VH21/VL5 (antibody, V domains shown)
VH: QSMQESGPGLVKPSQTLSLTCTVSGFSLSSYAMSWIRQHPGKGLEWIGYIWSGGSTDYASWAKSRVTISVDTSKNQVSLKLSSVTAADTAVYYCARRYGTSYPDYGDANGFDPWGQGTLVTVSS
VL: B1 VL with A1D, Y2I
B22: 2/99 VH22/VL5 (antibody, V domains shown)
VH: B21 VH with I36V
VL: B1 VL with A1D, Y2I
B23: 2/99 VH19/VL5 (antibody, V domains shown)
VH: B21 VH with S60P, W61S, A62L, V77F
VL: B1 VL with A1D, Y2I
B24: 2/99 VH1/VL6 (antibody, V domains shown)
VH: B2 VH with Q1V, L4V, S6T, V11I, T27S, F28L, K96R
VL: B1 VL with Y2I, M4L
B25: 2/99 VH23-DANG/VL4 (antibody, V domains shown)
VH: QSMQESGPGLVKPSQTLSLTCTVSGFSLSSYAMSWIRQHPGKGLEWIGYIWSGGSTDYASWAKSRVTISKTSTTVSLKLSSVTAADTAVYYCARRYGTSYPDYGDANGFDPWGQGTLVTVSS
VL: B1 VL
B26: 2/99 VH20/VL4 (antibody, V domains shown)
VH: B21 VH with S60P, W61S, A62L
VL: B1 VL
B27: 2/99 VH18/VL5 (antibody, V domains shown)
VH: B5 VH with E16Q, P40H, N60A
VL: B1 VL with A1D, Y2I
B28: 2/99 VH5/VL5 (antibody, V domains shown)
VH: B2 VH with Q2S, L3M, L4E, S6T, V11I, T27S, F28L, K96R, Q116P
VL: B1 VL with A1D, Y2I
B29: 2/99 VH2/VL5 (antibody, V domains shown)
VH: B18 VH
VL: B1 VL with A1D, Y2I
B30: 2/99 VH23-DANG/VL5 (antibody, V domains shown)
VH: B25 VH
VL: B1 VL with A1D, Y2I
B31: 2/99 VH17/VL5 (antibody, V domains shown)
VH: B1 VH
VL: B1 VL with A1D, Y2I
B32: 2/99 VH21/VL4 (antibody, V domains shown)
VH: B21 VH
VL: B1 VL
B33: 2/99 VH20/VL5 (antibody, V domains shown)
VH: B21 VH with S60P, W61S, A62L
VL: B1 VL with A1D, Y2I

Residue numbers refer to the chain shown, from its start.

This assay deals with T1, human transferrin receptor (recombinant, for surface plasmon resonance) (human, UniProt P02786 89-760).
T1 construct: also called huTfR; human transferrin receptor-biotinylated
T1 sequence (P02786 89-760 limits assumed): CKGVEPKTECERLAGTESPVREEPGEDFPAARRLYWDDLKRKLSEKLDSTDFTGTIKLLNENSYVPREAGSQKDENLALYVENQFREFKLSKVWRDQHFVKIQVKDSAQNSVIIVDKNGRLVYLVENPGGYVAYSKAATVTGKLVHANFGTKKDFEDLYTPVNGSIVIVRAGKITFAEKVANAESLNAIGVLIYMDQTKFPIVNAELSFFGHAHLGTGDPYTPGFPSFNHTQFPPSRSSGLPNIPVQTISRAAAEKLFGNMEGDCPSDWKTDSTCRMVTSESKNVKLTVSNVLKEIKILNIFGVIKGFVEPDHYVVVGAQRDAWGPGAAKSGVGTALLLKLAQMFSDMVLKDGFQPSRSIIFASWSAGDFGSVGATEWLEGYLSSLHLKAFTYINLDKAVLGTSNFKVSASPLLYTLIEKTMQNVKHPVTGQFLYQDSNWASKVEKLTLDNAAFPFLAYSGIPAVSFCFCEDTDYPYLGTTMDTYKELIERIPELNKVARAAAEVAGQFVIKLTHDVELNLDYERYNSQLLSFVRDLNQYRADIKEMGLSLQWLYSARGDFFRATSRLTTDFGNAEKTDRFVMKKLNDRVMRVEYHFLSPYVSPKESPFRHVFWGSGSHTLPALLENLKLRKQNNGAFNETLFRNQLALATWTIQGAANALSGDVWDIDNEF
The assay can be described thus: SPR 25C.
The term koff denotes a measure of how fast the partners let go of each other. For B1, the koff was 0.000723 s⁻¹.
For the molecule B2, the koff was 0.00683 s⁻¹.
Take B3: the koff came out at 0.00166 s⁻¹.
On to B4, for which the off-rate constant (koff) came to 0.00464 s⁻¹.
Then B5, with 0.00582 s⁻¹; and B6, with 0.00107 s⁻¹; and B7, with 0.00223 s⁻¹.
Turning to B8, the koff came out at 0.00118 s⁻¹.
As to B9, the koff was 0.0035 s⁻¹.
As to B10, the koff was determined as 0.0014 s⁻¹.
Next, B11: 0.00271 s⁻¹; B12: 0.00135 s⁻¹.
As to B13, the koff was 0.00218 s⁻¹.
As to B14, the koff came to 0.00456 s⁻¹.
In the case of B15, the koff was 0.00335 s⁻¹.
Turning to B16, the koff worked out at 0.00214 s⁻¹.
On to B17, for which the koff amounted to 0.00306 s⁻¹.
Then B18, with 0.00555 s⁻¹; and B19, with 0.00671 s⁻¹; and B20, with 0.001 s⁻¹.
As for B21, the koff is 0.00137 s⁻¹.
For B22, the koff is 0.00141 s⁻¹.
For the molecule B23, the koff was determined as 0.001 s⁻¹.
Consider B24, for which the koff is 0.00538 s⁻¹.
Regarding B25, the koff turned out to be 0.000761 s⁻¹.
For the molecule B26, the koff was 0.00436 s⁻¹.
For B27, the koff is 0.00349 s⁻¹.
With B28, the koff came to 0.00253 s⁻¹.
B29: the koff came out at 0.00262 s⁻¹.
Regarding B30, the koff amounted to 0.00088 s⁻¹.
Next, B31: 0.00123 s⁻¹; B32: 0.00146 s⁻¹.
Turning to B33, the koff was 0.00352 s⁻¹.

The values above are taken from patent publication US20180291110A1 (Hoffmann-La Roche, published 2018).
